Results taken from paper PMC4944209 (Journal of structural biology, 2016).

Biological target: the molecule itself
Assay: cryo-EM structure

B1: OmpF, β-barrel channel protein from the outer membrane of E. coli (natural protein, UniProt P02931 23-362, looked up)
chain: AEIYNKDGNKVDLYGKAVGLHYFSKGNGENSYGGNGDMTYARLGFKGETQINSDLTGYGQWEYNFQGNNSEGADAQTGNKTRLAFAGLKYADVGSFDYGRNYGVVYDALGYTDMLPEFGGDTAYSDDFFVGRVGGVATYRNSNFFGLVDGLNFAVQYLGKNERDTARRSNGDGVGGSISYEYEGFGIVGAYGAADRTNLQEAQPLGNGKKAEQWATGLKYDANNIYLAANYGETRNATPITNKFTNTSGFANKTQDVLLVAQYQFDFGLRPSIAYTKSKAKDVEGIGDVDLVNYFEVGATYYFNKNMSTYVDYIINQIDSDNKLGVGSDDTVAVGIVYQF
Question: For B1, which “stoichiometry N” value is on record?
Answer: The value was 3.
